Reference: US20020051988A1 (TRUSTEES OF BOSTON UNIVERSITY, published 2002)
Where no end group is shown, it is not given here.

Experiments:
[1] = biological target: p75 nerve growth factor receptor (p75^NTR) on cultured normal human melanocytes (human) (UniProt P08138); assay: cell-based or functional assay
[2] = biological target: p75 nerve growth factor receptor (p75^NTR) overexpressed on permanently transfected NIH 3T3 fibroblasts (Homo sapiens (Human)) (UniProt P08138); assay: competition with ^125I β-amyloid 1-40 on p75^NTR-NIH 3T3 cells, 2 h at 4 C, NGF 0-100 ng/ml; value at 100 ng/ml NGF
[3] = biological target: p75 nerve growth factor receptor (p75^NTR) overexpressed on permanently transfected NIH 3T3 fibroblasts (Homo sapiens (Human)) (UniProt P08138); assay: cell-based or functional assay
[4] = biological target: T1, p75 nerve growth factor receptor (p75^NTR) overexpressed on permanently transfected NIH 3T3 fibroblasts (Homo sapiens (Human), UniProt P08138 29-427); assay: displacement of ^125I β-amyloid 1-40 from p75^NTR 3T3 cells, 4 h at 4 C, peptide 0-400 nM
T1 construct: also called 75 kD neurotrophin receptor
T1 sequence: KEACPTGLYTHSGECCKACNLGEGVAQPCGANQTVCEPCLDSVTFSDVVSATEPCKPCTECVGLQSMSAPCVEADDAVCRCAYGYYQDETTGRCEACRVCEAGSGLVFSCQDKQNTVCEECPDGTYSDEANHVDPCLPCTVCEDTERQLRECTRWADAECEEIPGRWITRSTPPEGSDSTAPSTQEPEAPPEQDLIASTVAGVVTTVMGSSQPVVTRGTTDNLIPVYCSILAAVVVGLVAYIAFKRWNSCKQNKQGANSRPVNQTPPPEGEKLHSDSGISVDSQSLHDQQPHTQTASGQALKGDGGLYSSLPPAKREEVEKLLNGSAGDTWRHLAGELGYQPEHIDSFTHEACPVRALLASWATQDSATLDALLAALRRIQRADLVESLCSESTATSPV

“β-amyloid 25-35 peptide (from UniProt P05067 696-706)” gave a Bax induction [1] of 3 fold and a Bax level as compared to the 40-1 peptide [1] of 160%.

Work on Nerve growth factor (NGF) (ligand) yielded a maximum % inhibition of ^125I labeled β-amyloid binding [2] of 38%.

For “β-amyloid 1-40 peptide (from UniProt P05067 1-40)”, the Bax induction [1] was 3 fold, the Bax level as compared to the 40-1 peptide [1] was 270% and the decrease in cell yield [1] was 59%. The decrease in melanocyte yield [1] was over 50% and the decrease in cell yield [3] was 60%.

B1: cyclic peptide CVGSNKGAIC (SEQ ID NO: 4) (peptide)
peptide: CVGSNKGAIC
modifications: also: cyclic peptide, ring closure not given here
notes: also called cyclic decapeptide; cold peptide
B1 gave an IC50 [4] of 25 nM.
